Assays:
[1] = target: human polyclonal IgG (Gammanorm) (human); assay: column DBC; base C3; ligand […]
[2] = target: human polyclonal IgG (Gammanorm) (human); assay: column DBC; base A20; ligand […]
[3] = target: human polyclonal IgG (Gammanorm) (human); assay: column DBC; base A33; ligand […]; conditions: ligand content 6.5 mg/ml
[4] = target: human polyclonal IgG (Gammanorm) (human); assay: column DBC; base A38; ligand […]
[5] = target: human polyclonal IgG (Gammanorm) (human); assay: column DBC; base A54; ligand […]; conditions: ligand content 6.7 mg/ml
[6] = target: human polyclonal IgG (Gammanorm) (human); assay: column DBC; base A56; ligand […]; conditions: ligand content 7.1 mg/ml
[7] = target: human polyclonal IgG (Gammanorm) (human); assay: column DBC; base H31; ligand […]
[8] = target: human polyclonal IgG (Gammanorm) (human); assay: column DBC; base H35; ligand […]
[9] = target: human polyclonal IgG (Gammanorm) (human); assay: column DBC; base H40; ligand […]; conditions: ligand content 6.9 mg/ml
[10] = target: human polyclonal IgG (Gammanorm) (human); assay: column DBC; base A62a; ligand […]
[11] = target: human polyclonal IgG (Gammanorm) (human); assay: column DBC; base A56-2; ligand […]
[12] = target: human polyclonal IgG (Gammanorm) (human); assay: SPR; vs reference Zvar6; 0.5 M NaOH
[13] = target: human polyclonal IgG (Gammanorm) (human); assay: SPR; after 100 CIP cycles 0.5 M NaOH
[14] = target: human polyclonal IgG (Gammanorm) (human); assay: column DBC; base A20; ligand 6.4 mg/ml
[15] = target: human polyclonal IgG (Gammanorm) (human); assay: column DBC; base A56; ligand 7.9 mg/ml
[16] = target: human polyclonal IgG (Gammanorm) (human); assay: column DBC; base C3; ligand 11.9 mg/ml
[17] = target: human polyclonal IgG (Gammanorm) (human); assay: column DBC; base C3; ligand 15.1 mg/ml
[18] = target: human polyclonal IgG (Gammanorm) (human); assay: column DBC; base C4; ligand 11.2 mg/ml
[19] = target: human polyclonal IgG (Gammanorm) (human); assay: column DBC; base C4; ligand 15.2 mg/ml
[20] = target: human polyclonal IgG (Gammanorm) (human); assay: column DBC; base S9; ligand 18.4 mg/ml
[21] = target: human polyclonal IgG (Gammanorm) (human); assay: column DBC; base A20; ligand 21.1 mg/ml
[22] = target: human polyclonal IgG (Gammanorm) (human); assay: column DBC; base A38; ligand 11.6 mg/ml
[23] = target: human polyclonal IgG (Gammanorm) (human); assay: column DBC; base A38; ligand 15.8 mg/ml
[24] = target: human polyclonal IgG (Gammanorm) (human); assay: column DBC; base A54; ligand 21.1 mg/ml
[25] = target: human polyclonal IgG (Gammanorm) (human); assay: column DBC; base A56; ligand 15.2 mg/ml
[26] = target: human polyclonal IgG (Gammanorm) (human); assay: column DBC; base A56; ligand 19.2 mg/ml
[27] = target: human polyclonal IgG (Gammanorm) (human); assay: column DBC; base A62a; ligand 9.6 mg/ml
[28] = target: human polyclonal IgG (Gammanorm) (human); assay: column DBC; base A63b; ligand 6.4 mg/ml
[29] = target: human polyclonal IgG (Gammanorm) (human); assay: column DBC; base H31; ligand 20.0 mg/ml
[30] = target: human polyclonal IgG (Gammanorm) (human); assay: column DBC; base H35; ligand 12.3 mg/ml
[31] = target: human polyclonal IgG (Gammanorm) (human); assay: column DBC; base H35; ligand 20.3 mg/ml
[32] = target: human polyclonal IgG (Gammanorm) (human); assay: column DBC; base H40; ligand 23.0 mg/ml
[33] = target: human polyclonal IgG (Gammanorm) (human); assay: column DBC; base P10; ligand 19.0 mg/ml
[34] = target: human polyclonal IgG (Gammanorm) (human); assay: column DBC; base A63b; ligand 10.6 mg/ml
[35] = target: human polyclonal IgG (Gammanorm) (human); assay: column DBC; base A63b; ligand 16.7 mg/ml
[36] = target: human polyclonal IgG (Gammanorm) (human); assay: column DBC; base A56-2; ligand 12.5 mg/ml
[37] = target: human polyclonal IgG (Gammanorm) (human); assay: column DBC; base A56-2; ligand 19.2 mg/ml

Substance: Zvar(Q9A,N11E,Q40V,A42K,N43A,L44I)6 (designed binder)
- Qb10% 2.4 min [1]: 48 mg/mL
- Qb10% 6 min [1]: 59 mg/mL
- Qb10% 2.4 min [2]: 38 mg/mL
- Qb10% 6 min [2]: 64 mg/mL
- Qb10% 2.4 min [3]: 44 mg/mL
- Qb10% 6 min [3]: 53 mg/mL
- Qb10% 2.4 min [4]: 47 mg/mL
- Qb10% 6 min [4]: 57 mg/mL
- Qb10% 2.4 min [5]: 38 mg/mL
- Qb10% 6 min [5]: 46 mg/mL
- Qb10% 2.4 min [6]: 48 mg/mL
- Qb10% 6 min [6]: 57 mg/mL
- Qb10% 2.4 min ([7]; ligand content 6.5 mg/ml): 37 mg/mL
- Qb10% 6 min ([7]; ligand content 6.5 mg/ml): 38 mg/mL
- Qb10% 2.4 min ([7]; ligand content 10.4 mg/ml): 50 mg/mL
- Qb10% 6 min ([7]; ligand content 10.4 mg/ml): 61 mg/mL
- Qb10% 2.4 min [8]: 36 mg/mL
- Qb10% 6 min [8]: 49 mg/mL
- Qb10% 2.4 min [9]: 50 mg/mL
- Qb10% 6 min [9]: 56 mg/mL
- Qb10% 2.4 min [10]: 62 mg/mL
- Qb10% 6 min [10]: 84 mg/mL
- Qb10% 2.4 min [11]: 50 mg/mL
- Qb10% 6 min [11]: 58 mg/mL
- capacity relative to ref. 100 cycles [12]: 1.3
- remaining capacity 100 cycles [13]: 87%
- Qb10% 2.4 min [14]: 41 mg/mL
- Qb10% 6 min [14]: 56 mg/mL
- Qb10% 2.4 min [15]: 47 mg/mL
- Qb10% 6 min [15]: 55 mg/mL
- Qb10% 2.4 min [16]: 51 mg/mL
- Qb10% 6 min [16]: 73 mg/mL
- Qb10% 2.4 min [17]: 43 mg/mL
- Qb10% 6 min [17]: 61 mg/mL
- Qb10% 2.4 min [18]: 62 mg/mL
- Qb10% 6 min [18]: 74 mg/mL
- Qb10% 2.4 min [19]: 57 mg/mL
- Qb10% 6 min [19]: 82 mg/mL
- Qb10% 2.4 min [20]: 56 mg/mL
- Qb10% 6 min [20]: 75 mg/mL
- Qb10% 2.4 min [21]: 44 mg/mL
- Qb10% 6 min [21]: 43 mg/mL
- Qb10% 2.4 min [22]: 48 mg/mL
- Qb10% 6 min [22]: 72 mg/mL
- Qb10% 2.4 min [23]: 36 mg/mL
- Qb10% 6 min [23]: 62 mg/mL
- Qb10% 2.4 min [24]: 38 mg/mL
- Qb10% 6 min [24]: 65 mg/mL
- Qb10% 2.4 min [25]: 48 mg/mL
- Qb10% 6 min [25]: 76 mg/mL
- Qb10% 2.4 min [26]: 55 mg/mL
- Qb10% 6 min [26]: 80 mg/mL
- Qb10% 2.4 min [27]: 56 mg/mL
- Qb10% 6 min [27]: 72 mg/mL
- Qb10% 2.4 min [28]: 42 mg/mL
- Qb10% 6 min [28]: 46 mg/mL
- Qb10% 2.4 min [29]: 31 mg/mL
- Qb10% 6 min [29]: 52 mg/mL
- Qb10% 2.4 min [30]: 31 mg/mL
- Qb10% 6 min [30]: 54 mg/mL
- Qb10% 2.4 min [31]: 20 mg/mL
- Qb10% 6 min [31]: 43 mg/mL
- Qb10% 2.4 min [32]: 41 mg/mL
- Qb10% 6 min [32]: 65 mg/mL
- Qb10% 6 min [33]: 76 mg/mL
- Qb10% 2.4 min [34]: 49 mg/mL
- Qb10% 6 min [34]: 60 mg/mL
- Qb10% 2.4 min [35]: 53 mg/mL
- Qb10% 6 min [35]: 69 mg/mL
- Qb10% 2.4 min [36]: 59 mg/mL
- Qb10% 6 min [36]: 72 mg/mL
- Qb10% 2.4 min [37]: 61 mg/mL
- Qb10% 6 min [37]: 82 mg/mL

Source: US20190119318A1
